Reference: patent US20130177528A1, “COMPOSITIONS AND METHODS FOR INHIBITING VIRAL INFECTION” (WESTERN UNIVERSITY OF HEALTH SCIENCES, priority 2011, published 2013)

Columns and labels:
Assay type in all cases: cell-based, herpes simplex virus type-1
HSV-1 (804) strain = test: HSV-1 plaque assay in HeLa cells (Example 11); details: 10 μM, 0.01 PFU/cell, 24 h post-infection
Protocol: (§1) (A) In this experiment nectin-1 Chinese hamster ovary (CHO) Ig8 cells that express β-galactosidase upon viral entry were pre-treated with 10 μM contortrostatin (CN; indicated as treated [Tr]) or mock treated (indicated as untreated [Un]) with phosphate saline buffer for 90 min at room temperature followed by infection using clinical isolates of herpes simplex virus type-1 (HSV-1; F,G, and MP at 25 pfu/cell) for 6 h. The viral entry blocking was measured by o-nitro-phenyl-β-o-galactopyranoside (ONPG) assay as previously described. Error bars represent SD. (B) Confluent monolayers of HeLa cells were infected with HSV-1 (804) strain at 0.01 PFU/cell in presence (panel i) and absence (panel ii) of CN for 2 h at 37° C. Viral replication in HeLa cells were visualized 24 h post-infection for plaques. a=significant differences from corresponding mock-treated controls (P<0.05, t-test).
Viral plaque assay. Confluent layers of RPE cells in glass bottom dishes were infected with CMV Ad169 strain in the presence and absence of CN at 0.01 PFU per cell for 2 hrs. This was followed by extensive but gentle washing three times with DMEM media followed by feeding cells with DMEM media. The cells were then incubated at 37° C. for thee days. […] The number of plaques formed were then visualized and quantified as indicated. […] The cells were again washed 5× in PBS and the numbers of plaques were counted. […]

[1] = system: HSV-1 strains F, G and MP; test: Entry of clinical HSV-1 strains into nectin-1 CHO Ig8 cells, cells pre-incubated with CN (Example 10); details: nectin-1 CHO Ig8 cells pre-incubated with 10 μM, MP at 25 pfu/cell, 6 h
Protocol: as §1
The next question was to evaluate the broader significance of CN as an anti-HSV agent. Therefore the ability of CN to block viral entry in different clinical virulent strains of HSV-1 (F, G and MP) was tested. Here, nectin-1 expressing CHO Ig8 cells that express β-galactosidase upon viral entry were used. The cells were preincubated with CN at 10 μM and then infected with clinical isolates of HSV-1.

HSV-1 (KOS) gL86 = test: HSV-1 entry into natural target cells (HeLa, human corneal fibroblasts), cells pre-incubated with CN (Example 9); details: for HSV-1 entry (β-galactosidase activity, OD 410): 25 pfu/cell, 6 h
Protocol: In this experiment (A) HeLa and (B) primary cultures of human corneal fibroblasts (CF) were used. They were either pre-treated with contortrostatin (CN) at indicated concentrations or mock-treated (positive control [+]) with phosphate saline buffer for 90 min at room temperature. β-galactosidase-expressing recombinant virus herpes simplex virus type-1 (HSV-1; KOS) gL86 (25 pfu/cell) was used to infect cells. Uninfected cells were kept as negative control (−). After 6 h, the cells were washed, permeabilized and incubated with […] expressed from the input viral genome. The enzymatic activity was measured at an optical density of 410 nm (OD 410). Error bars represent SD. a=significant difference from controls and/or treatments (P<0.05, t-test).
To confirm blocking activity of CN on HSY-I entry, HeLa and primary cultures of human CF were used. It has been shown that HeLa and human CF naturally express gD receptors. […] This raises the possibility that the effect of CN can be more pronounced in the natural target cells and that it may not depend on gD receptors. […] The inhibitory effect is likely dependent on the type of integrins expressed on the surface of cells.

B1: contortrostatin (protein)
chain: DAPANPCCDAATCKLTTGSQCADGLCCDQCKFMKEGTVCRRARGDDLDDYCNGISAGCPRNPFHA
- HSV-1 plaque formation (HSV-1 (804) strain): blocked the plaque formation
- entry of clinical HSV-1 strains (ONPG assay) [1]: blocked the entry of different strains of HSV-1
- HSV-1 entry (β-galactosidase activity, OD 410) (HSV-1 (KOS) gL86; HeLa cells pre-incubated 90 min): significant blocking of HSV-1 entry
- concentration at which strong inhibition of entry was observed (HSV-1 (KOS) gL86; natural target cells (HeLa and CF)): < 1 µM
- HSV-1 entry (β-galactosidase activity, OD 410) (HSV-1 (KOS) gL86; primary human corneal fibroblasts (CF) pre-incubated 90 min): significant blocking of HSV-1 entry
